{
  "source": "patent US7867500B2",
  "about": "“Cofactor that modulates steroid receptor activities” (The United States of America as represented by the …, priority 2004, dated 2011)",
  "key": {"TIF2.4 [1]": {"target": "T1, TIF2.4 (Homo sapiens, UniProt Q15596)", "T1 sequence (Q15596 624-1010 limits assumed)": "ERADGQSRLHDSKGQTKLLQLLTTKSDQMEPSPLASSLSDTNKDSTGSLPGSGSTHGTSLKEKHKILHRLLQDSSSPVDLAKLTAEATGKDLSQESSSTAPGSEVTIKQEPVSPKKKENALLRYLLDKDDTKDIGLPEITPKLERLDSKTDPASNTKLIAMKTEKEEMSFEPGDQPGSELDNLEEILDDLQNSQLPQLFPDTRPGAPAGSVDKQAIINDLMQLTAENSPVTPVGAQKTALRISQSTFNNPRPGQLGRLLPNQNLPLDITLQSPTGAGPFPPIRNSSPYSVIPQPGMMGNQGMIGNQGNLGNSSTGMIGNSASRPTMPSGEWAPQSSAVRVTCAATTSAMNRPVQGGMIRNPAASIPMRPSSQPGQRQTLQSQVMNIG", "assay": "Cell-free pulldown of [35S]-labeled STAMP constructs by GST/TIF2.4", "assay_type": "binding", "settings": "compared with GST itself", "description": "FIGS. 7A and 7B illustrate the domains of STAMP that bind to TIF2.4 (FIG. 7A) and GR (FIG. 7B) in cell-free pulldown assays. Bacterially expressed GST-chimeras (GST/TIF2.4 in FIG. 7A and GST/STAMP segments in FIG. 7B) were immobilized on glutathione-Sepharose beads. The [^35S]methionine labeled STAMP fragments (FIG. 7A) or wild type GR (FIG. 7B) that were retained on the matrix by binding to the GST chimeras were separated on SDS PAGE gels and visualized by autoradiography. Specific binding was seen as when the GST/TIF2.4 or GST/STAMP bands were darker than the GST control bands. […] Similar results were obtained in a second experiment.\nTemplate DNA plasmids (1 μg), 40 μl of Promega TNT (SP6) quick coupled transcription/translation system master mixture, and 2 μl of [^35S]methionine (Amersham Biosciences) were brought up to a total volume of 50 μl with H2O and incubated at 30° C. for 90 min according to the manufacturer's (Promega) recommendations. If hormone stimulation is needed, hormones (Dex, etc) were added into the transcription-translation reaction during the 30° C. incubation to both increase the stability of the synthesized GR and to cause activation of the GR-steroid complexes.\nThese assays were conducted generally as described (He et al., 2002). Sonicated bacterial lysates (1 ml) containing overexpressed GST, GST/TIF2.4, or GST/STAMP-956C were incubated with 160 μl of glutathione-Sepharose 4B beads for 1 hr at 0° C. The mixture was centrifuged (12,000×g), the supernatant was discarded, and the pellet was washed with phosphate-buffered saline (3×1 ml). Each 20-μl sample of immobilized GST or GST-chimera was then incubated overnight with 10 μl of ^35S-labeled in vitro translation product. The matrix was washed with phosphate-buffered saline (4×1 ml). The immobilized proteins were removed from the beads by heating at 90° C. for 5 min in 20 μl of 2×SDS loading buffer. The proteins were separated on 8-10% SDS-PAGE gels and detected by radio-autoradiography."}, "TIF2.4 [2]": {"target": "T1, TIF2.4", "assay": "Mammalian two-hybrid assay in CV-1 cells (pFRLuc reporter) with TIF2.4", "assay_type": "cell-based", "parameters": "expressed in transfected cells; host or cells: CV-1", "description": "FIG. 2A-2C illustrate the isolation and characterization of the partial clone of the protein that binds to TIF2.4. […] Five clones were obtained but only two (clones I and V) contained a protein that was needed for colony growth in the presence of the pSos/TIF2.4 fusion protein. After initial screening, only clone I (also named 6-6CL1) was selected for further investigation. FIG. 2B and FIG. 2C illustrate the selectivity of 6-6CL1 interactions with TIF2.4 in mammalian two-hybrid assays. Triplicate samples of CV-1 cells in 24-well plates were transiently transfected with the indicated GAL-DBD and VP16-AD plasmids along with the GAL4-regulated reporter, pFRLuc. The relative luciferase activity, normalized for the activity of the internal Renilla control, was determined and plotted as the average±S.D. The much lower activity of GAL/TIF2.4m123 was previously shown not to be due to unequal levels of protein expression (He et al., 2002). Similar results were obtained in three additional experiments. FIG. 2D and FIG. 2E provide a comparison of binding to 6-6CL1 by similarly positioned domains of SRC-1 and TIF2. Triplicate samples of CV-1 cells in 24-well plates were analyzed as in (B&C) after being transiently transfected with GAL±6-6CL1 constructs and pFRLuc reporter along with VP16 chimeras of SRC-1 (FIG. 2D) or TIF2 (FIG. 2E) segments. Similar results for SRC-1 were obtained in two additional experiments (ND=not determined). Western blots (FIG. 2F) indicate that the low activity of TIF2(1140C) (see FIG. 1) is not due to inadequate protein expression.\nFIGS. 6A and 6B illustrate the domains of STAMP that interact with TIF2.4 (FIG. 6A) and GR (FIG. 6B) in the mammalian two-hybrid assay. […] These CV-1 cells were also transfected with GAL fused to the indicated segments of STAMP along with the FRLuc reporter and Renilla control plasmids. After determining the relative luciferase activities as described in FIG. 2B and 2C, the average values±S.E.M. from 2-5 experiments were plotted. The average fold increase for VP16/TIF2.4 with GAL/STAMP(623-834) in FIG. 6A was 11.0±3.0 (SEM, n=5) above the VP16 control. The values in parentheses above the data bars in FIG. 6B indicate the fold increased interaction ±1 μM Dex.\nThese assays were conducted as described (He et al., 2002). In particular, the recommended procedure for the Mammalian Matchmaker two-hybrid assay kit (Clontech) was modified slightly by changing from a chloramphenicol acetyltransferase reporter to a Luciferase Reporter pFRLuc (Stratagene), which is under the control of five repeats of the upstream activating sequence for the binding of GAL4."}},
  "data": [
    {"molecule": "STAMP834C: STAMP fragment amino acids 834-1277, receptor interaction domain (RID) (protein) GDHPETIMEEVKIKPPKQQQTTEIHSDKLSRFTTSAEKEAKLVYSNSSSGPTATLQKIPNTHLSSVTTSDLSPGPCHHSSLSQIPSAIPSMPHQPTILLNTVSASASPCLHPGAQNIPSPTGLPRCRSGSHTIGPFSSFQSAAHIYSQKLSRPSSAKAGSCYLNKHHSGIAKTQKEGEDASLYSKRYNQSMVTAELQRLAEKQAARQYSPSSHINLLTQQVTNLNLATGIINRSSASAPPTLRPIISPSGPTWSTQSDPQAPENHSSSPGSRSLQTGGFAWEGEVENNVYSQATGVVPQHKYHPTAGSYQLQFALQQLEQQKLQSRQLLDQSRARHQAIFGSQTLPNSNLWTMNNGAGCRISSATASGQKPTTLPQKVVPPPSSCASLVPKPPPNHEQVLRRATSQKASKGSSAEGQLNGLQSSLNPAASVPITSSTDPAHTKI", "values": [
      {"measurement": "binding to GST/TIF2.4", "setting": "TIF2.4 [1]", "value": "neither the amino terminal (N623) nor the C-terminal (834C) fragments exhibit significantly more binding to GST/TIF2.4 than to GST itself"},
      {"measurement": "interaction with TIF2.4", "setting": "TIF2.4 [2]", "value": "weak response"}
    ]},
    {"molecule": "6-6CL1: STAMP fragment amino acids 623-834, coactivator interaction domain (CID) (protein) ENTPKENSMKVREWNNKGGHCCKLETQELEPKFNLMQILQDNGNLSKMQARIAFSAYLQHVQIRLMKDSGGQTFSASWAAKEDEQMELVVRFLKRASNNLQHSLRMVLPSRRLALLERRRILAHQLGDFIIVYNKETEQMAEKKSKKKVEEEEEDGVNMENFQEFIRQASEAELEEVLTFYTQKNKSASVFLGTHSKISKNNNNYSDSGAKG", "values": [
      {"measurement": "binding to GST/TIF2.4", "setting": "TIF2.4 [1]", "value": "strong binding"},
      {"measurement": "interaction with TIF2.4", "setting": "TIF2.4 [2]", "value": "did interact"},
      {"measurement": "average fold increase for VP16/TIF2.4 above the VP16 control", "setting": "TIF2.4 [2]; SEM, n=5", "value": "11.0±3.0", "unit": "fold"}
    ]},
    {"molecule": "STAMP: SRC-1 and TIF2 Associated Modulatory Protein, 1277 amino acid human polypeptide, expressed from transfected plasmid (protein) MARDLEETASSSEDEEVISQEDHPCIMWTGGCRRIPVLVFHADAILTKDNNIRVIGERYHLSYKIVRTDSRLVRSILTAHGFHEVHPSSTDYNLMWTGSHLKPFLLRTLSEAQKVNHFPRSYELTRKDRLYKNIIRMQHTHGFKVFHILPQTFLLPAEYAEFCNSYSKDRGPWIVKPVASSRGRGVYLINNPNQISLEENILVSRYINNPLLIDDFKFDVRLYVLVTSYDPLVIYLYEEGLARFATVRYDQGAKNIRNQFMHLTNYSVNKKSGDYVSCDDPEVEDYGNKWSMSAMLRYLKQEGRDTTALMAHVEDLIIKTIISAELAIATACKTFVPHRSSCFELYGFDVLIDSTLKPWLLEVNLSPSLACDAPLDLKIKASMISDMFTVVGFVCQDPAQRASTRPIYPTFESSRRNPFQKPQRCRPLSASDAEMKNLVGSAREKGPGKLGGSVLGLSMEEIKVLRRVKEENDRRGGFIRIFPTSETWEIYGSYLEHKTSMNYMLATRLFQDRMTADGAPELKIESLNSKAKLHAALYERKLLSLEVRKRRRRSSRLRAMRPKYPVITQPAEMNVKTETESEEEEEVALDNEDEEQEASQEESAGFLRENQAKYTPSLTALVENTPKENSMKVREWNNKGGHCCKLETQELEPKFNLMQILQDNGNLSKMQARIAFSAYLQHVQIRLMKDSGGQTFSASWAAKEDEQMELVVRFLKRASNNLQHSLRMVLPSRRLALLERRRILAHQLGDFIIVYNKETEQMAEKKSKKKVEEEEEDGVNMENFQEFIRQASEAELEEVLTFYTQKNKSASVFLGTHSKISKNNNNYSDSGAKGDHPETIMEEVKIKPPKQQQTTEIHSDKLSRFTTSAEKEAKLVYSNSSSGPTATLQKIPNTHLSSVTTSDLSPGPCHHSSLSQIPSAIPSMPHQPTILLNTVSASASPCLHPGAQNIPSPTGLPRCRSGSHTIGPFSSFQSAAHIYSQKLSRPSSAKAGSCYLNKHHSGIAKTQKEGEDASLYSKRYNQSMVTAELQRLAEKQAARQYSPSSHINLLTQQVTNLNLATGIINRSSASAPPTLRPIISPSGPTWSTQSDPQAPENHSSSPGSRSLQTGGFAWEGEVENNVYSQATGVVPQHKYHPTAGSYQLQFALQQLEQQKLQSRQLLDQSRARHQAIFGSQTLPNSNLWTMNNGAGCRISSATASGQKPTTLPQKVVPPPSSCASLVPKPPPNHEQVLRRATSQKASKGSSAEGQLNGLQSSLNPAASVPITSSTDPAHTKI", "values": [
      {"measurement": "binding to GST/TIF2.4", "setting": "TIF2.4 [1]", "value": "weak interaction"}
    ]}
  ]
}
